Assay results published in publication doi:10.1101/2020.12.22.424058, “Structural basis for the dimerization-dependent CRISPR-Cas12f nuclease” (bioRxiv, 2020).

Legend:
[1] = biological target: the molecule itself; assay: cryo-EM structure; Cas12f D510A with sgRNA (222 nt) and target dsDNA (60 bp, TTTA PAM) at 1:1.2:1.3, 37°C, then SEC (Superdex 200) in 25 mM Tris-HCl pH 7.6, 150 mM NaCl, 2 mM DTT, 1 mM MgCl2; ternary complex, 3.1 Å; the two Cas12f copies are bound to one sgRNA
[2] = biological target: the molecule itself; assay: cryo-EM structure; Cas12f with sgRNA at 1:1.2, 37°C for 30 min in 25 mM Tris-HCl pH 7.6, 150 mM NaCl, 2 mM DTT, 1 mM MgCl2; binary complex, 3.9 Å; the two Cas12f copies are bound to one sgRNA

B1: Un1Cas12f1^D510A (enzyme, UniProt A0A482D308 1-529, looked up)
chain: MAKNTITKTLKLRIVRPYNSAEVEKIVADEKNNREKIALEKNKDKVKEACSKHLKVAAYCTTQVERNACLFCKARKLDDKFYQKLRGQFPDAVFWQEISEIFRQLQKQAAEIYNQSLIELYYEIFIKGKGIANASSVEHYLSDVCYTRAAELFKNAAIASGLRSKIKSNFRLKELKNMKSGLPTTKSDNFPIPLVKQKGGQYTGFEISNHNSDFIIKIPFGRWQVKKEIDKYRPWEKFDFEQVQKSPKPISLLLSTQRRKRNKGWSKDEGTEAEIKKVMNGDYQTSYIEVKRGSKIGEKSAWMLNLSIDVPKIDKGVDPSIIGGIDVGVKSPLVCAINNAFSRYSISDNDLFHFNKKMFARRRILLKKNRHKRAGHGAKNKLKPITILTEKSERFRKKLIERWACEIADFFIKNKVGTVQMENLESMKRKEDSYFNIRLRGFWPYAEMQNKIEFKLKQYGIEIRKVAPNNTSKTCSKCGHLNNYFNFEYRKKNKFPHFKCEKCNFKENAAYNAALNISNPKLKSTKEEP
notes: Cas12f (UnCas12f1, Un1Cas12f1; also known as Cas14), 529 amino acids, 61.5 kDa; plasmid Addgene #112500; Two copies (Cas12f.1 and Cas12f.2) stand in the complex with one sgRNA and the target dsDNA; The model lacks three N-terminal and four C-terminal residues; also called Cas12f D510A mutant; source: E. coli BL21(DE3), purified (Ni-NTA, HiTrap SP HP, Superdex 200); not shown: 10xHis, N-terminal, …
- stoichiometry N [1]: 2

B2: Cas12f (UnCas12f1) (enzyme, UniProt A0A482D308 1-529, looked up)
chain: MAKNTITKTLKLRIVRPYNSAEVEKIVADEKNNREKIALEKNKDKVKEACSKHLKVAAYCTTQVERNACLFCKARKLDDKFYQKLRGQFPDAVFWQEISEIFRQLQKQAAEIYNQSLIELYYEIFIKGKGIANASSVEHYLSDVCYTRAAELFKNAAIASGLRSKIKSNFRLKELKNMKSGLPTTKSDNFPIPLVKQKGGQYTGFEISNHNSDFIIKIPFGRWQVKKEIDKYRPWEKFDFEQVQKSPKPISLLLSTQRRKRNKGWSKDEGTEAEIKKVMNGDYQTSYIEVKRGSKIGEKSAWMLNLSIDVPKIDKGVDPSIIGGIDVGVKSPLVCAINNAFSRYSISDNDLFHFNKKMFARRRILLKKNRHKRAGHGAKNKLKPITILTEKSERFRKKLIERWACEIADFFIKNKVGTVQMENLESMKRKEDSYFNIRLRGFWPYAEMQNKIEFKLKQYGIEIRKVAPNNTSKTCSKCGHLNNYFNFEYRKKNKFPHFKCEKCNFKENADYNAALNISNPKLKSTKEEP
notes: Cas12f (UnCas12f1, Un1Cas12f1; also known as Cas14), 529 amino acids, 61.5 kDa; plasmid Addgene #112500; The methods say only 'Cas12f proteins' for the binary complex with sgRNA; also called Un1Cas12f1; Cas14; source: E. coli BL21(DE3), purified (Ni-NTA, HiTrap SP HP, Superdex 200); not shown: 10xHis, N-terminal, cleaved; MBP, N-terminal, cleaved
- binding result [2]: binds
